Patent CN109879965A

Target: CD3E on human peripheral blood T lymphocytes (human) (UniProt P07766)
Assay: cell-based or functional assay

Chain of CD3E on human peripheral blood T lymphocytes (human) (P07766 23-207): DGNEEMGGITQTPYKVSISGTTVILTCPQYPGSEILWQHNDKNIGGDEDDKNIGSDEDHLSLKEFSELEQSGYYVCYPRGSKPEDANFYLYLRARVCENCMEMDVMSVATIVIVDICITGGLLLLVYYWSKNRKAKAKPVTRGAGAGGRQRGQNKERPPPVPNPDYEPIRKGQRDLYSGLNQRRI

IL-2 in the supernatant of PBMC after 48 h on plate-coated antibody (1 μg/mL), IL-2 ELISA: 400 pg/mL
Substance: OKT3 (antibody)
